The results in this text go back to patent US20220169708A1 (University of California, published 2022).

T1: cystic fibrosis transmembrane conductance regulator (CFTR) inhibitory factor (Cif) (Pseudomonas aeruginosa, UniProt A0A0H2ZD27 25-319)
T1 construct: also called CIF protein; Cif-protein
T1 sequence: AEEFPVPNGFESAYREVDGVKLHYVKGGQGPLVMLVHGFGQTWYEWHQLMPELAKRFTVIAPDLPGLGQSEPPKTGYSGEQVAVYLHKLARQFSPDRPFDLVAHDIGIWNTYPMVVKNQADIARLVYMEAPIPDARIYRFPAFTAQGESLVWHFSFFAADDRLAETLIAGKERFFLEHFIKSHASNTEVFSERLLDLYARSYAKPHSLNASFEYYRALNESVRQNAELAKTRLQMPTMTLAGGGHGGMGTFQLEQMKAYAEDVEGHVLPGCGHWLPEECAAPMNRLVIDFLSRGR

B1: VHH CLONE 302 (VHH)
VHH: QVKLQESGGGLVQPGGSLRLSCVASGNIGDIYTMGWYRQAPGKQRELVATVGDGGLTNFVDSVKGRFTISRDKSKGTVSLEMNSLKPEDTAVYYCNADVRIGPTGLRVYWGQGTQVTVSS
notes: The entry includes the C-terminal 6xHis and HA tags
B2: VHH CLONE 103 (VHH)
VHH: EVQLMESAGGLVRPGGSLRLSCVASGSIGDIYSMGWYRQAPGKQRELVATVGAGGLTDYGDSVLGRFTISRDKTKGTVSLEMNSLKPEDTAVYYCNADVSIGPTGLRVYWGQGTQVTVSS
notes: as for B1
B3: VHH CLONE 220 (VHH)
VHH: B1 VHH with Q1E, K3Q, Q5V, D30N, T50A, D53A, G55E, F59Y, R100S
notes: The entry includes the C-terminal 6xHis and HA tags; also called nanobody 220
B4: VHH CLONE 116 (VHH)
VHH: EVQLVESGGGLVQPGGSLRLSCTASGSILKIYTMDWYRQAPGKQRDLVATVSSRGDTDYTDSVKGRFTISRDDAKNTAYLQMSSLKPEDTAVYYCNFYIQSRTAPFNDYWGQGTQVTVSS
notes: as for B1
B5: VHH CLONE 205 (VHH)
VHH: DVQLQASGGGLVQPGGSLRLSCAATGSTDRIAFMGWYRQAPGKLRELVAGITSDGRTNYADDVDVSGRFTISRDSAKNMVYLQMNSLKPEDTAVYYCNADITLAMGGLRVYWGQGTQVTVSS
notes: as for B1
B6: VHH CLONE 213 (VHH)
VHH: B1 VHH with Q1E, K3Q, Q5V, G8V
notes: as for B1
B7: VHH CLONE 320 (VHH)
VHH: DVQLQASGGGLVQPGGSLRLSCATSTSVFSITTLGWYRQAPGKQRELVASMKRGGDTNYADSVKGRFTISRDNARNTVFLQMNNLTTEDTAVYYCNAAILAYTGAVTNYWGQGTQVTVSS
notes: The entry includes the C-terminal 6xHis and HA tags; also called nanobody 320
B8: VHH CLONE 108 (VHH)
VHH: EVQLVESGGGLVQPGGSLRLSCEATGNFDDRGIGWFRQAPGKEREGIACITTRGRTHYAESVEGRFTISTDIANNAVYLQMNSLKPEDTAVYYCAKAIRLTTDRTQCVAFPGVSWGRGTQVTVSS
notes: as for B1

Substitutions are numbered along the chain they refer to.

The target in one assay is T1, cystic fibrosis transmembrane …. The experiment in a line: sandwich ELISA, lower graph: Cif in serial dilution (about 0.05-100 ng/mL) captured on anti-Cif pAb 0.3 ug/well, VHH 50 ng/well, anti-HA mAb detection; the concentration is that of Cif; sheet labels the value IC50, text calls it EC50. Here is the method:
(§1) 1). Immunoassay. A 96-well plate was coated with pAb at 3 μg/mL, 100 μL per well at RT for 1 h. The plate was blocked with 1% skimmed milk in PBST at RT for at least 2 h. Cif in PBS was loaded on the plate with increasing concentration and incubated for 1 h at RT. Following 5 times wash with PBST, VHH at 0.5 μg/mL in PBS, 100 μL per well (or 50 ng/well) was loaded. The plate was incubated for 1h at RT and then washed 5 times with wash buffer. Mouse anti-HA-HRP conjugate was added at 100 μl/well in a 1:3000 dilution as instructed by manufacturer. The plate was incubated for 1h at RT and washed 5 times. The plate was developed for 10 min with substrate solution added at 100 μl/well. The reaction was stopped by addition of 2M H₂SO₄ (50 μl/well) and absorbance was read at 450 nm. SigmaPlot 11.0 software was used for curve fitting and data analysis.
(§2) To evaluate produced recombinant antibodies, classical sandwich ELISA was performed using purified rabbit polyclonal anti-Cif antibodies as a capturing antibody (FIG. 3). […] Cif protein was loaded in a serial dilution range of 0.05-100 ng/mL and VHHs were added at 50 ng per well.
A general note: An ELISA detects its analyte on a solid surface through an enzyme-linked reagent.
B1: the half-maximal effective concentration (EC50) (commonly the concentration needed to bring the measured effect to its halfway point) was determined as 0.0172 µg/mL.

As for B2, the midpoint of the response, the EC50, lay at 0.0168 µg/mL.

With B3, the EC50 is 0.0211 µg/mL.

In the case of B4, the 50% effective concentration (EC50) was 0.0312 µg/mL.

With B5, the concentration giving a half-maximal response (EC50) is 0.0207 µg/mL.

A further assay shares this target. Kind of assay: sandwich ELISA, upper graph: Cif in serial dilution (about 0.05-100 ng/mL) captured on anti-Cif pAb 0.3 ug/well, VHH 50 ng/well, anti-HA mAb detection; the concentration is that of Cif; sheet labels the value IC50, text calls it EC50. Here is the method: as §1, §2
As for B6, a half-maximal response (EC50) required 0.011 µg/mL.

For the molecule B7, the EC50 is 0.0061 µg/mL.

On to B8, for which the 50% effective concentration (EC50) was determined as 0.0098 µg/mL.
